# Measured values from USRE47150 (Bayer, dated 2018).
# Residue numbers refer to the chain shown, from its start. Names may count otherwise.
# T1: human tissue factor pathway inhibitor (TFPI) (human, UniProt P10646 29-304, limits assumed)
# T1 construct: bought; also called hTFPI; human TFPI
# T1 sequence (looked up): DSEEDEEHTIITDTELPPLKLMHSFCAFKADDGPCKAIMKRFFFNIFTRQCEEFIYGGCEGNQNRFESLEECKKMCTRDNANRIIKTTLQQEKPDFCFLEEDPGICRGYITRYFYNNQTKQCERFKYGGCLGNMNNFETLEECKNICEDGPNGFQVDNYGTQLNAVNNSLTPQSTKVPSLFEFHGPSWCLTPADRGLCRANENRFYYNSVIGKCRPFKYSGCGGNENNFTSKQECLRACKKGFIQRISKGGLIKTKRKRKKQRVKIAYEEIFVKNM
# T2: mouse tissue factor pathway inhibitor (TFPI) (mouse, UniProt O54819 29-289, limits assumed)
# T2 construct: bought; also called mTFPI; murine TFPI
# T2 sequence (looked up): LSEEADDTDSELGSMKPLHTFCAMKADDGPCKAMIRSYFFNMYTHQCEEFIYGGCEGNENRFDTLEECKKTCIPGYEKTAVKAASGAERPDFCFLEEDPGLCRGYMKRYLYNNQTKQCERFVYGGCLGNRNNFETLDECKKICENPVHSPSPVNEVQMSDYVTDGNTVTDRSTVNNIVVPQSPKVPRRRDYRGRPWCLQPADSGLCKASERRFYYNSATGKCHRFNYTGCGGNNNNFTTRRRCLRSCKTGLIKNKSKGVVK
# B1: 4B7 HC N32D+D62R+H107M+Y112D/LC F31M+S32R+D33R (Fab, V domains shown)
# VH: QVQLQQSGPGLVKPSQTLSLTCAISGDSVSSDSAAWSWIRQSPGRGLEWLGIIYKRSKWYNRYAVSVKSRITINPDTSKNQFSLQLNSVTPEDTAVYYCARWHSDKMWGFDDWGQGTLVTVSS
# VL: DIVMTQSPLSLPVTPGEPASISCRSSQSLVMRRGNTYLNWYLQKPGQSPQLLIYKGSNRASGVPDRFSGSGSGTDFTLKISRVEAEDVGVYYCQQYDSYPLTFGQGTKVEIKR
# B2: 4B7 HC N32D+D62R+H107M+Y112D/LC F31M+S32R+D33R+N35I+D97T (Fab, V domains shown)
# VH: B1 VH
# VL: B1 VL with N35I, D97T
# B3: 4B7 HC N32D+D62R+H107M+Y112D/LC F31M+S32R+D33R+N35T (Fab, V domains shown)
# VH: B1 VH
# VL: B1 VL with N35T
# B4: 4B7 HC N32D+D62R+H107M+Y112D/LC S32R+D33F+N35T (Fab, V domains shown)
# VH: B1 VH
# VL: B1 VL with M31F, R33F, N35T
# B5: 4B7 HC N32D+D62R+H107M+Y112D/LC S32R+N35T (Fab, V domains shown)
# VH: B1 VH
# VL: B1 VL with M31F, R33D, N35T
# B6: 4B7 HC N32D+D62R+H107M+Y112D/LC S32R+N35T+D97T (Fab, V domains shown)
# VH: B1 VH
# VL: B1 VL with M31F, R33D, N35T, D97T
# B7: 4B7 HC N32D+D62R+H107M/LC S32R+D33R+N35I (Fab, V domains shown)
# VH: B1 VH with D112Y
# VL: B1 VL with M31F, N35I
# B8: 4B7 HC N32D+D62R+Y112D/LC D33F+N35I+D97T (Fab, V domains shown)
# VH: B1 VH with M107H
# VL: B1 VL with M31F, R32S, R33F, N35I, D97T
# B9: 4B7 HC N32D+D62R+Y112D/LC D33R+N35I (Fab, V domains shown)
# VH: B1 VH with M107H
# VL: B1 VL with M31F, R32S, N35I
# B10: 4B7 HC N32D+D62R+Y112D/LC F31H+S32R+D33F+N35I+D97T (Fab, V domains shown)
# VH: B1 VH with M107H
# VL: B1 VL with M31H, R33F, N35I, D97T
# B11: 4B7 HC N32D+D62R+Y112D/LC F31I+D33F+N35I+D97T (Fab, V domains shown)
# VH: B1 VH with M107H
# VL: B1 VL with M31I, R32S, R33F, N35I, D97T
# B12: 4B7 HC N32D+D62R+Y112D/LC F31M+S32R+D33R+N35I (Fab, V domains shown)
# VH: B1 VH with M107H
# VL: B1 VL with N35I
# B13: 4B7 HC N32D+D62R+Y112D/LC F31Y+S32R+D33F+N35I+D97T (Fab, V domains shown)
# VH: B1 VH with M107H
# VL: B1 VL with M31Y, R33F, N35I, D97T
# B14: 4B7 HC N32D+D62R+Y112D/LC M4I+S32R+D33F+N35I+D97T (Fab, V domains shown)
# VH: B1 VH with M107H
# VL: B1 VL with M4I, M31F, R33F, N35I, D97T
# B15: 4B7 HC N32D+D62R+Y112D/LC M4L+S32R+D33F+N35I+D97T (Fab, V domains shown)
# VH: B1 VH with M107H
# VL: B1 VL with M4L, M31F, R33F, N35I, D97T
# B16: 4B7 HC N32D+D62R+Y112D/LC S32R+D33F+N35I+A60D+D97T (Fab, V domains shown)
# VH: B1 VH with M107H
# VL: B1 VL with M31F, R33F, N35I, A60D, D97T
# B17: 4B7 HC N32D+D62R+Y112D/LC S32R+D33F+N35I+D97T+S98H (Fab, V domains shown)
# VH: B1 VH with M107H
# VL: B1 VL with M31F, R33F, N35I, D97T, S98H
# B18: 4B7 HC N32D+D62R+Y112D/LC S32R+D33F+N35I+G56V+D97T (Fab, V domains shown)
# VH: B1 VH with M107H
# VL: B1 VL with M31F, R33F, N35I, G56V, D97T
# B19: 4B7 HC N32D+D62R+Y112D/LC S32R+D33F+N35I+K44R+D97T (Fab, V domains shown)
# VH: B1 VH with M107H
# VL: B1 VL with M31F, R33F, N35I, K44R, D97T
# B20: 4B7 HC N32D+D62R+Y112D/LC S32R+D33F+N35I+K55L+D97T (Fab, V domains shown)
# VH: B1 VH with M107H
# VL: B1 VL with M31F, R33F, N35I, K55L, D97T
# B21: 4B7 HC N32D+D62R+Y112D/LC S32R+D33F+N35I+L42Q+D97T (Fab, V domains shown)
# VH: B1 VH with M107H
# VL: B1 VL with M31F, R33F, N35I, L42Q, D97T
# B22: 4B7 HC N32D+D62R+Y112D/LC S32R+D33F+N35I+L51R+D97T (Fab, V domains shown)
# VH: B1 VH with M107H
# VL: B1 VL with M31F, R33F, N35I, L51R, D97T
# B23: 4B7 HC N32D+D62R+Y112D/LC S32R+D33F+N35I+N39D+D97T (Fab, V domains shown)
# VH: B1 VH with M107H
# VL: B1 VL with M31F, R33F, N35I, N39D, D97T
# B24: 4B7 HC N32D+D62R+Y112D/LC S32R+D33F+N35I+Q50R+D97T (Fab, V domains shown)
# VH: B1 VH with M107H
# VL: B1 VL with M31F, R33F, N35I, Q50R, D97T
# B25: 4B7 HC N32D+D62R+Y112D/LC S32R+D33F+N35I+T36N+D97T (Fab, V domains shown)
# VH: B1 VH with M107H
# VL: B1 VL with M31F, R33F, N35I, T36N, D97T
# B26: 4B7 HC N32D+D62R+Y112D/LC S32R+D33R (Fab, V domains shown)
# VH: B1 VH with M107H
# VL: B1 VL with M31F
# B27: 4B7 HC N32D+D62R+Y112D/LC V30L+S32R+D33F+N35I+D97T (Fab, V domains shown)
# VH: B1 VH with M107H
# VL: B1 VL with V30L, M31F, R33F, N35I, D97T
# B28: 4B7 HC N32D+D62R+Y112D/LC V30L+S32R+D33F+N35I+T36N+D97T (Fab, V domains shown)
# VH: B1 VH with M107H
# VL: B1 VL with V30L, M31F, R33F, N35I, T36N, D97T
# B29: 4B7 HC N32D+D62R+Y112D/LC V30L+S32R+N35I+T36N (Fab, V domains shown)
# VH: B1 VH with M107H
# VL: B1 VL with V30L, M31F, R33D, N35I, T36N
# B30: 4B7 HC N32D+D62S+H107M+Y112D/LC S32R+D33R+N35T (Fab, V domains shown)
# VH: B1 VH with R62S
# VL: B1 VL with M31F, N35T
# B31: 4B7 HC N32D+G44S+D62R+Y112D/LC S32R+D33F+N35I+D97T (Fab, V domains shown)
# VH: B1 VH with G44S, M107H
# VL: B1 VL with M31F, R33F, N35I, D97T
# B32: 4B7 HC N32D+I53T+D62Q+Y112D/LC F31I+D33F+N35I (Fab, V domains shown)
# VH: B1 VH with I53T, R62Q, M107H
# VL: B1 VL with M31I, R32S, R33F, N35I
# B33: 4B7 HC N32D+I53T+D62R+Y112D/LC S32R+D33F+N35I+D97T (Fab, V domains shown)
# VH: B1 VH with I53T, M107H
# VL: B1 VL with M31F, R33F, N35I, D97T
# B34: 4B7 HC N32D+K55Y+D62Q+Y112D/LC F31I+D33F+N35I (Fab, V domains shown)
# VH: B1 VH with K55Y, R62Q, M107H
# VL: B1 VL with M31I, R32S, R33F, N35I
# B35: 4B7 HC N32D+K55Y+D62R+Y112D/LC S32R+D33F+N35I+D97T (Fab, V domains shown)
# VH: B1 VH with K55Y, M107H
# VL: B1 VL with M31F, R33F, N35I, D97T
# B36: 4B7 HC N32D+S37N+D62R+Y112D/LC S32R+D33F+N35I+D97T (Fab, V domains shown)
# VH: B1 VH with S37N, M107H
# VL: B1 VL with M31F, R33F, N35I, D97T
# B37: 4B7 HC Q1E+N32D+D62R+Y112D/LC S32R+D33F+N35I+D97T (Fab, V domains shown)
# VH: B1 VH with Q1E, M107H
# VL: B1 VL with M31F, R33F, N35I, D97T
# Columns and labels:
# [1] = target: T1, human tissue factor pathway inhibitor …; assay: competitive ELISA
# [2] = target: T2, mouse tissue factor pathway inhibitor …; assay: competitive ELISA
Binder,variant/HC_D62R [1] [ratio],variant/HC_D62R [2] [ratio],binding result [2]
B1,18.6,13.9,
B2,16.9,9.6,
B3,17,18.7,
B4,29.2,44.1,
B5,25.3,29.3,
B6,27.7,15.8,
B7,12.9,16.1,
B8,25.5,15.9,
B9,22.9,19.5,
B10,22.1,15.2,
B11,23.3,11.9,
B12,15.8,11.2,
B13,27.9,39.7,
B14,19.3,12,
B15,21.3,23.9,
B16,19.1,14.3,
B17,17.9,7.1,
B18,12.1,,no binding
B19,26,40.1,

Binder,variant/HC_D62R [1] [ratio],variant/HC_D62R [2] [ratio],binding result [2]
B20,7.8,,no binding
B21,26.9,43,
B22,11.2,5.2,
B23,1.3,,no binding
B24,25.9,39.4,
B25,25.2,35.4,
B26,14.8,7.2,
B27,26.1,42.2,
B28,23.9,28.4,
B29,25,7,
B30,19.6,20.3,
B31,26.5,41.5,
B32,5.7,,no binding
B33,19.6,8.3,
B34,25.6,26.2,
B35,25.6,42.8,
B36,1.9,,no binding
B37,26.7,39.8,
